Test results from patent publication US5340925A, “Normal human growth regulatory receptor for TGF-β” (Oncogen, priority 1992, dated 1994).
Like-named read-outs stand apart in the source and are kept apart here.

Experiments:
[1] = target: T1, HEPM cell-surface receptors for TGF-β (Homo sapiens, UniProt Q03167); assay: Radioreceptor assay: [125I]-iodo-TGF-β1 in competition with unlabeled TGF-β1, Scatchard analysis; assay type: binding; details: for Kd: untreated HEPM cells, Scatchard two-site model
T1 construct: endogenous in cells; host or cells: HEPM (human embryonic palatal mesenchyme) cells, intact monolayers
T1 sequence (Q03167 21-851): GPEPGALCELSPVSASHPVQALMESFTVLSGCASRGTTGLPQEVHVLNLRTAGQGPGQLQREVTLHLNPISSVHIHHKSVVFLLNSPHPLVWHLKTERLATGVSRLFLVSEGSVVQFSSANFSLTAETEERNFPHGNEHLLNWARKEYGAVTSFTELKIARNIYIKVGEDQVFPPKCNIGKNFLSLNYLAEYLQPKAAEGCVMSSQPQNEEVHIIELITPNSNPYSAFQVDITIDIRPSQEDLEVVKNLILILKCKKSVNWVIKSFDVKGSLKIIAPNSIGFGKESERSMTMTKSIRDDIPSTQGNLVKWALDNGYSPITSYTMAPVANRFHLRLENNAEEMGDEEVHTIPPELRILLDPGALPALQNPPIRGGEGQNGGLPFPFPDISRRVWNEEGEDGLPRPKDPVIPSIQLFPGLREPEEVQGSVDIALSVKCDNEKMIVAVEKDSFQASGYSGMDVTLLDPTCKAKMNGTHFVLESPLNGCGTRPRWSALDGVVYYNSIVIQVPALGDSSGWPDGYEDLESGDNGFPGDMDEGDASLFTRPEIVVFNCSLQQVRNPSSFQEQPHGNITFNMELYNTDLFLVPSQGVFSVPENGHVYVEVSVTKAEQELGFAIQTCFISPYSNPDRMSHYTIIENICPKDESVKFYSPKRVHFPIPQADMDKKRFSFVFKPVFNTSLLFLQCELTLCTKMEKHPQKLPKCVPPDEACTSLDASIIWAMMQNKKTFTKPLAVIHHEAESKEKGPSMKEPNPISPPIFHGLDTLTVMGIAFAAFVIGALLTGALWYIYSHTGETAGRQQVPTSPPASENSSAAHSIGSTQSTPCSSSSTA
Procedure: (§1) HEPM cells were grown to confluence (1×10^5 cells/well) in 24-well Costar tissue culture plates. Prior to the binding assay, cells were pre-incubated in serum-free growth medium at 37° C. for 4 hours to allow for the dissociation of TGF-β from occupied cells surface receptors. The resulting monolayers were washed 2 times in binding buffer (Dulbecco's MEM+0.1% BSA+25 mM HEPES). 250 μl of binding buffer containing 0.5 μg/ml [^125 I]-iodoTGF-β1, (specific activity of 100 μCi/μg) together with increasing amounts of unlabeled TGF-β1 were added to duplicate wells. Steady state binding was carried out at 4° C. for 3 hours. After incubation cells were washed 3 times with cold binding buffer and solubilized in 200 μl of Triton solution (20 mM HEPES, 1% Triton X-100, 10% glycerol, 0.01% BSA, pH 7.4). Radioactivity was determined using a gamma spectrometer. Non-specific binding was determined in the presence of a 1,000-fold molar excess unlabeled TGF-β1.
(§2) The radioreceptor assay described in Materials and Methods was used to characterize the affinity and number of cell-surface receptors for TGF-β on HEPM cells. Specific binding of [^125 I]-iodo-TGF-βin these assays was 20% of the total radioligand present. […] Half-maximal displacement of radioligand occurred at 100 pM (2.6 ng/ml) unlabeled TGF-β1. Competitive binding data were plotted according to the method of Scatchard (Scatchard, et al., 1947, Ann. NY Acad Sci 51:660-672) and the results are presented in FIG. 5. A distinctly curvilinear isotherm was obtained indicating the presence of at least two classes of binding sites on HEPM cells. […] Quantitative analysis determined that HEPM cells contain a total of 287,000 TGF-β receptors per cell (55,400 high affinity and 231,600 low affinity sites).

[2] = system: HEPM cell-surface receptors for TGF-β; assay: as above; assay type: binding, human; details: comparison of growth stimulation and receptor occupancy, FIG. 6
Procedure: as §1, §2

HEPM cells [3] = assay: Growth stimulation in monolayer monitored by cell counting; assay type: cell-based, human; details: 50 pM TGF-β1, 96 hours post-treatment
Procedure: FIG. 2 Bioactivity of TGF-β on HEPM cells: cell proliferation. Cell counts were taken at 24 hour intervals until 120 hours post treatment. The data is presented as the number of cells per well vs incubation time (hours). By 96 hours, cultures treated with 50 pM TGF-β1, ( ) had reached a cell density twice that of untreated cultures ( ).
Alternatively, growth stimulation in monolayer was monitored by cell counting. Cell monolayers were washed with PBS and then treated with 100 μl 0.25% trypsin solution at 37° C. until cells became detached from the culture surface. Fetal bovine serum (100 μl) was then added to each well to inhibit further action by trypsin. The resulting cell suspension was counted by the standard hemacytometer method. The viability of cells, greater than 98% in these examples, was determined by trypan blue dye-exclusion.

HEPM cells [4] = assay: Stimulation of anchorage independent growth assay (soft agar); assay type: cell-based, human; details: 50 pM TGF-β1 at plating, colonies enumerated on day 13
Procedure: FIGS. 3(A) and 3(B) Bioactivity of TGF-β on HEPM cells: stimulation of growth in soft agar. Cells were treated with 50 pM TGF-β1, at the time of plating and colony formation was enumerated on day 13.
A 0.5 ml base layer of 0.5% agar (Agar Noble; Difco Laboratories, Detroit, Mich.) in growth medium was added to 24-well Costar tissue culture plates 0.5 ml 0.3% agar in growth medium containing 1×10^4 HEPM cells and various concentrations of TGF-β or other test samples was overlaid on the base layer of agar in triplicate wells. The plates were incubated at 37° C. in a humidifed atmosphere of 5% CO2 in air for up to 14 days without refeeding. Colonies were enumerated unfixed and unstained. The number of colonies with more than 6 cells were scored.

half-maximal displacement of radioligand ([1]; unlabeled TGF-β1 vs [125I]-iodo-TGF-β1, 4° C., 3 hours): 2.6 ng/mL
IC50 ([1]; unlabeled TGF-β1 vs [125I]-iodo-TGF-β1, 4° C., 3 hours, read-out: half-maximal displacement of radioligand / half-maximal receptor occupancy): 0.1 nM
Kd ([1]; read-out: kd, high-affinity (low capacity) site): 0.058 nM
Kd ([1]; read-out: kd, low-affinity (high capacity) site): 0.898 nM
Substance: TGF-β1: Transforming growth factor-Beta type 1; two identical disulfide linked subunits having molecular weights of 13,000; recombinant material used
receptors occupied when full biological response is obtained [2]: 20%
cell density compared with untreated cultures (HEPM cells [3]): twice
mean colony number in soft agar (HEPM cells [4]): 8±1
